From patent US20250145694A1 (GUANGDONG FEIPENG BIOLOGICAL, published 2025)
Substitutions are numbered along the chain they refer to. Values belong to the binder of their own block, whether it stands above or below them.

Biological target: T1, CTNI quality control recombinant antigen (human, UniProt P19429 1-210, limits assumed)
T1 construct: Recombinant antigen produced by the applicant; also called CTNI quality control recombinant protein (antigen produced by the company); cardiac troponin I
Assay: BLI, antibody on AMC sensor, cTnI in solution
Description: With an AMC sensor, the purified antibody was diluted to 10 μg/ml with PBST, and CTNI quality control recombinant protein (antigen produced by the company) was gradient diluted with PBST to 769.2 nmol/ml, 384.6 nmol/ml, 192.3 nmol/ml, 96.2 nmol/ml, 48.1 nmol/ml, 24 nmol/ml, 12 nmol/ml, and 0 nmol/ml.

T1 sequence (P19429 whole entry): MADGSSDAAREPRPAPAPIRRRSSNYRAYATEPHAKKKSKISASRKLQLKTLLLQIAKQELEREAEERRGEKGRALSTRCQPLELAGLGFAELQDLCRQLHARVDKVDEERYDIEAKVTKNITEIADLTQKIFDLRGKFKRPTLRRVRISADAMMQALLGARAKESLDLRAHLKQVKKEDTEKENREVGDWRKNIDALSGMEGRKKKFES

B1: Mutation 1-1 (antibody)
heavy: EVQMVESGGGLLKPGGSLKLSCAASGFTFSNYAMSWVRQTPEKRLEWVATISSGGSYSFYPDSVKGRFTISRDNAKNTLYLQMLSLRSEDTAMYYCARRDNYYGSSFMDYWGQGSSVTVSSAKTTPPSVYPLAPGSAAQTNSMVTLGCLVKGYFPEPVTVTWNSGSLSSGVHTFPAVLQSDLYTLSSSVTVPSSTWPSQTVTCNVAHPASSTKVDKKIVPRDCGCKPCICTVPEVSSVFIFPPKPKDVLTITLTPKVTCVVVDISKDDPEVQFSWFVDDVEVHTAQTKPREEQFNSTFRSVSELPIMHQDWLNGKEFKCRVNSAAFPAPIEKTISKTKGRPKAPQVYTIPPPKEQMAKDKVSLTCMITNFFPEDITVEWQWNGQPAENYKNTQPIMDTDGSYFVYSKLNVQKSNWEAGNTFTCSVLHEGLHNHHTEKSLSHSPG
light: DIQMTQTSSSLSASLGDRVTISCRASQEITNYLNWYQQKPDGTIKLLIYYTSRIHSGVSSRFSGSGSGTDYSLTISNLEQEDIATYFCQQGHTLPLTFDTGTKLELKRADAAPTVSIFPPSSEQLTSGGASVVCFLNNFYPKDINVKWKIDGSERQNGVLNSWTDQDSKDSTYSMSSTLTLTKDEYERHNSYTCEATHKTSTSPIVKSFNRNEC
notes: assembled FR/CDR/constant
Kd: 3.47 nM | koff: 0.000124 s⁻¹ | kon: 35800 M⁻¹ s⁻¹

B2: Mutation 1-17 (antibody)
heavy: B1 heavy
light: B1 light with E28D, I54L, L94I
notes: assembled FR/CDR/constant
Kd: 9.22 nM | koff: 0.000336 s⁻¹ | kon: 36400 M⁻¹ s⁻¹

B4: Mutation 1-3 (antibody)
heavy: B1 heavy with F59Y, Y103P
light: B1 light with E28D, I54L
notes: assembled FR/CDR/constant
Kd: 4.58 nM | koff: 5.73e-05 s⁻¹ | kon: 12500 M⁻¹ s⁻¹

B5: Mutation 1-7 (antibody)
heavy: B1 heavy with F59Y, Y103F, S106T
light: B1 light with L94I
notes: assembled FR/CDR/constant
Kd: 4.71 nM | koff: 0.000186 s⁻¹ | kon: 39400 M⁻¹ s⁻¹

B11: Mutation 1-20 (antibody)
heavy: B1 heavy with F29Y, F59Y, Y103F
light: B1 light with E28D, I54L, H92N
notes: assembled FR/CDR/constant
Kd: 2.87 nM | koff: 0.000172 s⁻¹ | kon: 59800 M⁻¹ s⁻¹

B12: Mutation 1-15 (antibody)
heavy: B1 heavy with F59Y, Y103F
light: B1 light with H92N
notes: assembled FR/CDR/constant
Kd: 3.8 nM | koff: 0.000145 s⁻¹ | kon: 38100 M⁻¹ s⁻¹

B15: Mutation 1-23 (antibody)
heavy: B1 heavy with F59Y, Y103P, S106T
light: B1 light with L94I
notes: assembled FR/CDR/constant
Kd: 4.31 nM | koff: 0.000336 s⁻¹ | kon: 77900 M⁻¹ s⁻¹

B16: Mutation 1-12 (antibody)
heavy: B1 heavy with F29Y, F59Y, Y103P, S106T
light: B1 light with I54L
notes: assembled FR/CDR/constant
Kd: 1.52 nM | koff: 0.000135 s⁻¹ | kon: 88600 M⁻¹ s⁻¹

B17: Mutation 1-24 (antibody)
heavy: B1 heavy with F29Y, F59Y, Y103F, S106T
light: B1 light with L94I
notes: assembled FR/CDR/constant
Kd: 5.37 nM | koff: 0.000248 s⁻¹ | kon: 46100 M⁻¹ s⁻¹

B20: Mutation 1-4 (antibody)
heavy: B1 heavy with F29Y, F59Y, Y103F, S106T
light: B1 light with H92N
notes: assembled FR/CDR/constant; Same printed sites as Mutation 1-40
Kd: 7.1 nM | koff: 0.00053 s⁻¹ | kon: 74600 M⁻¹ s⁻¹

B22: Mutation 1-8 (antibody)
heavy: B1 heavy with F29Y, F59Y, Y103F
light: B1 light with L94I
notes: assembled FR/CDR/constant
Kd: 6.81 nM | koff: 0.000667 s⁻¹ | kon: 98000 M⁻¹ s⁻¹

The next lines start with the values.

Kd: 9.07 nM | koff: 0.000312 s⁻¹ | kon: 34400 M⁻¹ s⁻¹
B3: Mutation 1-22 (antibody)
heavy: B1 heavy with F29Y
light: B1 light with E28D, L94I
notes: assembled FR/CDR/constant

Kd: 0.83 nM | koff: 0.000807 s⁻¹ | kon: 972000 M⁻¹ s⁻¹
B6: Mutation 1-5 (antibody)
heavy: B1 heavy with Y103F
light: B1 light
notes: assembled FR/CDR/constant

Kd: 5.05 nM | koff: 0.000346 s⁻¹ | kon: 68500 M⁻¹ s⁻¹
B7: Mutation 1-10 (antibody)
heavy: B1 heavy with F29Y
light: B1 light with E28D
notes: assembled FR/CDR/constant

Kd: 8.6 nM | koff: 0.000184 s⁻¹ | kon: 21400 M⁻¹ s⁻¹
B8: Mutation 1-9 (antibody)
heavy: B1 heavy with S106T
light: B1 light with E28D, I54L, H92N
notes: assembled FR/CDR/constant

Kd: 7.76 nM | koff: 0.000498 s⁻¹ | kon: 64200 M⁻¹ s⁻¹
B9: Mutation 1-14 (antibody)
heavy: B1 heavy with F29Y, Y103F, S106T
light: B1 light with E28D, I54L, L94I
notes: assembled FR/CDR/constant

Kd: 9.81 nM | koff: 0.000275 s⁻¹ | kon: 28000 M⁻¹ s⁻¹
B10: Mutation 1-6 (antibody)
heavy: B1 heavy with F29Y
light: B1 light with E28D, I54L, H92N, L94I
notes: assembled FR/CDR/constant

Kd: 4.12 nM | koff: 0.000354 s⁻¹ | kon: 86000 M⁻¹ s⁻¹
B13: Mutation 1-13 (antibody)
heavy: B1 heavy with Y103P
light: B1 light with H92N, L94I
notes: assembled FR/CDR/constant

Kd: 4.4 nM | koff: 0.000253 s⁻¹ | kon: 57500 M⁻¹ s⁻¹
B14: Mutation 1-18 (antibody)
heavy: B1 heavy with F29Y, Y103P
light: B1 light with H92N
notes: assembled FR/CDR/constant

Kd: 2.43 nM | koff: 0.000129 s⁻¹ | kon: 53200 M⁻¹ s⁻¹
B18: Mutation 1-2 (antibody)
heavy: B1 heavy with F29Y, Y103P, S106T
light: B1 light with H92N, L94I
notes: assembled FR/CDR/constant

Kd: 8.19 nM | koff: 0.000772 s⁻¹ | kon: 94300 M⁻¹ s⁻¹
B19: Mutation 1-19 (antibody)
heavy: B1 heavy with F59Y, Y103F, S106T
light: B1 light with I54L
notes: assembled FR/CDR/constant

Kd: 4.4 nM | koff: 4.75e-05 s⁻¹ | kon: 10800 M⁻¹ s⁻¹
B21: Mutation 1-11 (antibody)
heavy: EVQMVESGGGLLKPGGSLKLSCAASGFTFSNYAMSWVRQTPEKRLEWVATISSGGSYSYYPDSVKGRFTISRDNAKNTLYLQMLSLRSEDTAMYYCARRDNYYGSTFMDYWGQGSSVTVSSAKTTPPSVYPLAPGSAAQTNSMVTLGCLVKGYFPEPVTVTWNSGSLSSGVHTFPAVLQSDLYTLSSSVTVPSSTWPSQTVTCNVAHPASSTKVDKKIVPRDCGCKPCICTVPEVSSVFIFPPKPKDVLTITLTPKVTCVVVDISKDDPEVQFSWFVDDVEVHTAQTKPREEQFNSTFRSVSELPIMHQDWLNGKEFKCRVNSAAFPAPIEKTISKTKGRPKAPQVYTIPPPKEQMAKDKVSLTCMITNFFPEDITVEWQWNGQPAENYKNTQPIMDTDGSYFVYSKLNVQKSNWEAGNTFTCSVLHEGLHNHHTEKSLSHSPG
light: B1 light with E28D, I54L, H92N, L94I
notes: assembled FR/CDR/constant

Kd: 9.55 nM | koff: 0.000632 s⁻¹ | kon: 66200 M⁻¹ s⁻¹
B23: Mutation 1-21 (antibody)
heavy: B1 heavy with S106T
light: B1 light with E28D
notes: assembled FR/CDR/constant
